Measurements taken from patent publication US10087245 (Hoffmann-La Roche, dated 2018).

Target: T1, Pick bodies (cellular inclusions of Pick's disease, only constituted of 3R tau proteins) (human, UniProt P10636-5 2-410, limits assumed)
T1 construct: Target in tissue sections (IHC)
Assay: IHC on human paraffin sections, Pick's disease
Method: Immunohistochemistry was performed on formalin-fixed tissues (paraffin-embedded or frozen sections or vibratome sections). Standard IHC protocols were applied and adapted for each tissue conditions. As most of immunostaining experiments were performed using paraffin sections, a detailed protocol for paraffin-embedded material is described herein. Immunostaining of brain tissue was performed on 4 µm thick paraffin sections. Both human and mouse tissues were used (Human patients with AD or other tauopathies and Tg4510 mice (Santacruz et al. 2005 Science, 309, 476-481). Sections were de-paraffinized in xylene, rehydrated through ethanol (100%, 90%, and 70%), 5 min for each solution and finally brought to running tap water for 10 min. They were then incubated in 98% formic acid for 5 min, washed again under running tap water, quenched for endogenous peroxidase with 3% hydrogen peroxide and 20% methanol, and finally washed in water. Non-specific binding was blocked by incubating the sections for 30 min in 2% bovine serum albumin in TBS+0.5% Tween. Appropriate dilutions of primary antibodies (1-10 µg/ml of VHH with either His or Strep tag) were then applied and slices incubated overnight in a humidified chamber at 4° C. […]

T1 sequence (P10636 other isoform, or with tags, fused parts or gaps limits assumed): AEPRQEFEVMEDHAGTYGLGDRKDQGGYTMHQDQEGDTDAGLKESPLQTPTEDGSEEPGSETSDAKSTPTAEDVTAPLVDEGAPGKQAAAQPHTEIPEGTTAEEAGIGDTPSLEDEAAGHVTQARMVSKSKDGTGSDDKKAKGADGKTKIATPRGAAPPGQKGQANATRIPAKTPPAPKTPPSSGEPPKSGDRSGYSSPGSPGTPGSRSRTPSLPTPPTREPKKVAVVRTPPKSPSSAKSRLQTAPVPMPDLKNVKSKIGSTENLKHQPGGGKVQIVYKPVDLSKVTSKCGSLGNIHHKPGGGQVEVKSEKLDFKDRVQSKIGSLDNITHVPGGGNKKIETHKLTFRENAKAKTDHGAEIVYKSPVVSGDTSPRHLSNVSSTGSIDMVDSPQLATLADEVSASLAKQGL

B1: VHH Tau-A2 (VHH)
VHH: EVQLQASGGGLVQAGGSLRLSCAASGRSFSGSTMEWYRQAPGKERKFVAAIRTISSRTYYVDSVKGRFTISRDSTKNTVYLQLNSLKVEDTAVYYCAARFSGTIGTTSSVDYWGQGTQVTVSS
notes: Alpaca VHH, expressed in E. coli with a His-tag or a Strep-tag; monomeric by DLS; not shown: 6-Histidine tag (pET23d) or C-terminal Strep-tag (pASK IBA2)
binding result: no binding
